Data as given in patent US20250250350.

Target: ALPG/P priming receptor of the AB-1013, AB-1014 and AB-1015 circuits
Sequence (chain, as listed by the source): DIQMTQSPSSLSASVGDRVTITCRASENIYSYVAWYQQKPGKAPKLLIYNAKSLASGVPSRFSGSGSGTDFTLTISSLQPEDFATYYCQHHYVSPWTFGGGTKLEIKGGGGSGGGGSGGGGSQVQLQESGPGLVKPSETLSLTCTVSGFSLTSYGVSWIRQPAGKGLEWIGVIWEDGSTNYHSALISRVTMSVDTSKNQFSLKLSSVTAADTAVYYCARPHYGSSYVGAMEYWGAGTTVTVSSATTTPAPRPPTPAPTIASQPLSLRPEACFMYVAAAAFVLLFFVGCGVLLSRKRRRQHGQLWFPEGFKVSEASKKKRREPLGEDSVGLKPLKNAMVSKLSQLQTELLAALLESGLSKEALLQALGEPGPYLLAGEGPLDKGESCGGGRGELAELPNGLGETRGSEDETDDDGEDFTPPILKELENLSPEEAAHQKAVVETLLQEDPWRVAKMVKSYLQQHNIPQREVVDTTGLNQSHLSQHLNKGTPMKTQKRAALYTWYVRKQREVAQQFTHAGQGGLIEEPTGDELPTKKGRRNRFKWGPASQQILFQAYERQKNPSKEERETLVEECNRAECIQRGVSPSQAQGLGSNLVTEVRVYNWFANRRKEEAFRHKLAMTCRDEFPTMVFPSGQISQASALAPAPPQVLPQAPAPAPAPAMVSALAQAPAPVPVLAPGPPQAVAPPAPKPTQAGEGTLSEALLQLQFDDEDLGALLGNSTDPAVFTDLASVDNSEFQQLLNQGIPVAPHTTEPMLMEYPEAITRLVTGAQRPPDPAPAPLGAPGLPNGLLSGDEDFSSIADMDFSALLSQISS

B1: Alkaline Phosphatase, Germ Cell (ALPG) expressed on K562-ALPG and K562-ALPG/MSLN target cells (protein)
chain: IIPVEEENPDFWNRQAAEALGAAKKLQPAQTAAKNLIIFLGDGMGVSTVTAARILKGQKKDKLGPETFLAMDRFPYVALSKTYSVDKHVPDSGATATAYLCGVKGNFQTIGLSAAARFNQCNTTRGNEVISVMNRAKKAGKSVGVVTTTRVQHASPAGAYAHTVNRNWYSDADVPASARQEGCQDIATQLISNMDIDVILGGGRKYMFPMGTPDPEYPDDYSQGGTRLDGKNLVQEWLAKHQGARYVWNRTELLQASLDPSVTHLMGLFEPGDMKYEIHRDSTLDPSLMEMTEAALLLLSRNPRGFFLFVEGGRIDHGHHESRAYRALTETIMFDDAIERAGQLTSEEDTLSLVTADHSHVFSFGGYPLRGSSIFGLAPGKARDRKAYTVLLYGNGPGYVLKDGARPDVTESESGSPEYRQQSAVPLDGETHAGEDVAVFARGPQAHLVHGVQEQTFIAHVMAFAACLEPYTACDLAPRAGTTD
With B1 the “time to peak of ALPG-dependent CAR conversion” value was “reached a peak after around 100 hours of stimulation with the PrimeR antigen”.
